Among the data in US20230303689A1 (published 2023) are EC50 values, retold here.

This assay has as its target human PD-1 expressed on cells (HuT78/PD-1, NK92MI/PD-1) (human, UniProt Q15116 25-288). Description: FACS binding (MFI). (In general: In flow cytometry, cells or beads pass a laser one at a time.)

human PD-1 expressed on cells (HuT78/PD-1, NK92MI/PD-1), sequence (Q15116 25-288): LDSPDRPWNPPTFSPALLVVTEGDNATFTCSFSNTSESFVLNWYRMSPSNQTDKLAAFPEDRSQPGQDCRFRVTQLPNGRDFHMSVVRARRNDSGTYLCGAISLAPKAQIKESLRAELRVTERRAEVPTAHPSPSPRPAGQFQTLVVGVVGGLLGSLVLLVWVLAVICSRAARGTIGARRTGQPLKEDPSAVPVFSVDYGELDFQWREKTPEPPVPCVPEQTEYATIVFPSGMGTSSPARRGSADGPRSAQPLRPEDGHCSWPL

B1: murine mAb 317 (antibody, V domains shown)
VH: QVQLKESGPGLVAPSKNLSITCTVSGFSLTSYGVHWIRQPPGKGLEWLGVIWAGGSTNYNSALMSRLSISKDNSRSQVFLRMNSLQTDDTAMYYCARAYGNYWYIDVWGAGTTVTVSS
VL: DIVMTQTPKFLLVSAGDRVTITCKASQSVSNDVAWYQQKPGQSPKLLINYAFHRFTGVPDRFTGSGYGTDFIFTISTVQAEDLAVYFCHQAYSSPYTFGGGTKLEMK
For B1, the response was half-maximal at 0.105 µg/mL (EC50).
